Experimental data reported in paper PMC7254967.
One block for each substance: values may come before it.

Assays:
Assay in all cases: crystal structure
[1] = biological target: W0, fused 4-oxalocrotonate tautomerase from Advenella mimigardefordensis DPN7 (Advenella mimigardefordensis DPN7)
[2] = biological target: F6, fused 4-oxalocrotonate tautomerase from Caballeronia arationis (Caballeronia arationis)
[3] = biological target: R7, fused 4-oxalocrotonate tautomerase from Burkholderia sp. RPE67 (Burkholderia sp. RPE67)
[4] = biological target: Q0, fused 4-oxalocrotonate tautomerase from Bordetella trematum (Bordetella trematum)

stoichiometry N [1]: 3
Substance: W0, fused 4-oxalocrotonate tautomerase from Advenella mimigardefordensis DPN7 (enzyme)

stoichiometry N [2]: 3
Substance: F6, fused 4-oxalocrotonate tautomerase from Caballeronia arationis (enzyme)

stoichiometry N [3]: 3
Substance: R7, fused 4-oxalocrotonate tautomerase from Burkholderia sp. RPE67 (enzyme)

stoichiometry N [4]: 3
Substance: Q0, fused 4-oxalocrotonate tautomerase from Bordetella trematum (enzyme)
